Article PMC7897774
Blank lines part the entries; values can stand above or below the molecule they belong to.

Biological target: HLA-A*02:01
Assay: differential scanning fluorimetry

Tm of the peptide/HLA-A*02:01 complex: 61.7 °C
Molecule: F7A-modified PMEL_(209(2M)–217) epitope (peptide)

Tm of the peptide/HLA-A*02:01 complex: 61.9 °C
B1: PMEL_(209(2M)–217) epitope (…) (peptide)
peptide: IMDQVPFSV
